From PMC5677083, “Characterization of ApoJ-reconstituted high-density lipoprotein (rHDL) nanodisc for the potential treatment of cerebral β-amyloidosis” (Scientific Reports, 2017)

Biological target: the molecule itself
Assay: SEC; purified rApoJ on a size exclusion column; wide peak at 12-16 ml and a homogeneous peak at 16-18 ml (maximum 16.5 ml) of the elution volume; column and buffer are in the Supplementary Information

B1: recombinant human ApoJ (rApoJ), free (non-lipidated) (natural protein)
chain 1: DQTVSDNELQEMSNQGSKYVNKEIQNAVNGVKQIKTLIEKTNEERKTLLSNLEEAKKKKEDALNETRESETKLKELPGVCNETMMALWEECKPCLKQTCMKFYARVCRSGSGLVGRQLEEFLNQSSPFYFWMNGDRIDSLLENDRQQTHMLDVMQDHFSRASSIIDELFQDRFFTREPQDTYHYLPFSLPHRRPHFFFPKSRIVR
chain 2: SLMPFSPYEPLNFHAMFQPFLEMIHEAQQAMDIHFHSPAFQHPPTEFIREGDDDRTVCREIRHNSTGCLRMKDQCDKCREILSVDCSTNNPSQAKLRRELDESLQVAERLTRKYNELLKSYQWKMLNTSSLLEQLNEQFNWVSRLANLTQGEDQYYLRVTTVASHTSDSDVPSGVTEVVVKLFDSDPITVTVPVEVSRKNPKFMETVAEKALQEYRKKHREE
notes: apolipoprotein J (clusterin), human, beta chain: cut product of the precursor, disulfide-bonded to the alpha chain; apolipoprotein J (clusterin), human, alpha chain: cut product of the precursor, disulfide-bonded to the beta chain; Heterodimer of alpha and beta chains (about 40 kDa each, about 77 kDa non-reduced); They are written on the alpha chain on the surmise that they sit at the C-terminus …
  binding result: binds
